Blank lines part the entries; values can stand above or below the substance they belong to.
Tests used:
[1] = molecular target: Fc gamma receptors on bovine alveolar macrophages; experiment: cell-based or functional assay
[2] = molecular target: recombinant bovine FcRn (bovine) (UniProt F6R592); experiment: SPR Biacore, bFcRn on SA sensor, pH 6, 25 C
[3] = molecular target: recombinant bovine FcRn (bovine) (UniProt F6R592); experiment: SPR Biacore, bFcRn on SA sensor, pH 7.4, 25 C
[4] = molecular target: recombinant bovine Fcg2R (bovine); experiment: SPR Biacore, bFcg2R amine-coupled on CM5, pH 7.4, 15 C
Chain of recombinant bovine Fcg2R (bovine) (main, as listed by the source): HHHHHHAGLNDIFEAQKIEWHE

[5] = molecular target: recombinant bovine FcRn (bovine) (UniProt F6R592); experiment: SPR Biacore, bFcRn, pH 6; against bIgG1a and bIgG3a mAbs
[6] = molecular target: recombinant bovine FcRn (bovine) (UniProt F6R592); experiment: SPR Biacore, bFcRn on SA sensor, pH 7.4, 25 C; remark: listed apart in the source
[7] = molecular target: recombinant bovine FcRn (bovine) (UniProt F6R592); experiment: SPR Biacore, bFcRn on SA sensor, pH 6, 25 C; remark: listed apart in the source

Chain of recombinant bovine FcRn (bovine) (chain, as listed by the source, chain 1 of 2): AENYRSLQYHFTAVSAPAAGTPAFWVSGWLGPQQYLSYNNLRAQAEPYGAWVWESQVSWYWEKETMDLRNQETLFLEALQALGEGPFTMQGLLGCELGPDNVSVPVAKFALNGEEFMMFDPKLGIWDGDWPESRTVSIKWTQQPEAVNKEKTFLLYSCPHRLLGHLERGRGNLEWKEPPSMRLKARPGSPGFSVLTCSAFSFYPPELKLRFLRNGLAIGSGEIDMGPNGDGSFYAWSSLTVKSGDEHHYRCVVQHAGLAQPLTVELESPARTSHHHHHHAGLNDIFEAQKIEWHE
Chain of recombinant bovine FcRn (bovine) (P01888 21-118, chain 2 of 2): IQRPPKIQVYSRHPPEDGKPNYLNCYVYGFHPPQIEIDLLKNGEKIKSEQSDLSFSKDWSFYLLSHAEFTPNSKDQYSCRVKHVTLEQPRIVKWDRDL

ADCP EC50 Value [1]: 0.003 µg/mL
Substance: CTLA4 Fc bIgG1a (from UniProt Q9XSI1 36-161) (Fc fusion)

ADCP EC50 Value [1]: 0.029 µg/mL
Substance: CTLA4 Fc bIgG3a (from UniProt Q9XSI1 36-161) (Fc fusion)

ADCP EC50 Value [1]: 0.014 µg/mL
Substance: CTLA4bG2a (from UniProt Q9XSI1 36-161) (Fc fusion)

Kd [2]: 3.06 nM
Kd [3]: 131 nM
Kd [4]: 13.3 nM
fold higher affinity than bIgG1a and bIgG3a [5]: 10 fold
Kd [6]: 147 nM
Kd [7]: 0.254 nM
Substance: bIgG2a wildtype mAb (antibody)
